The supplement of paper PMC7125110
± gives the standard error. For part of these data: Variants at the floor of the assay were thinned out.

B1: glmS ribozyme (parent)
chain: AUAAAAGCGCCAGAACUACAGAAAUGUAGUUGACGAGGAGGAGGUUUAUCGAAUUUUCGGCGGAUGCCUCCAAA

Tests used:
Settings in all cases: with glucosamine-6-phosphate
glucosamine-6-phosphate [1] = variants of: B1; test: kcat; higher = faster cleavage; RNA array
Outline: (§1)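 Using a hybridised Cy3 probe at 37 °C, barcoded ribozyme variants transcribed in situ by E. coli RNA polymerase on sequenced MiSeq chips were monitored across tiles imaged over ~14 h. The flow contained glucosamine-6-phosphate from 40 μM to 10 mM in HEPES/KCl/Mg(OAc)2 buffer. Signals were normalised to baseline and to non-cleaving reference variants before per-tile medians were fit to one- or two-exponential decays to yield kobs. Weighted Michaelis–Menten fits across concentrations gave kcat and KM.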

glucosamine-6-phosphate [2] = variants of: B1; test: self-cleavage kobs at 40 uM GlcN6P; higher = faster cleavage; RNA array
Outline: as §1

glucosamine-6-phosphate [3] = variants of: B1; test: self-cleavage kobs at 10000 uM GlcN6P; higher = faster cleavage; RNA array
Outline: as §1

glucosamine-6-phosphate [4] = variants of: B1; test: KM; higher = weaker cofactor use; RNA array
Outline: as §1

glucosamine-6-phosphate [5] = variants of: B1; test: self-cleavage kobs at 2500 uM GlcN6P; higher = faster cleavage; RNA array
Outline: as §1

glucosamine-6-phosphate [6] = variants of: B1; test: self-cleavage kobs at 160 uM GlcN6P; higher = faster cleavage; RNA array
Outline: as §1

glucosamine-6-phosphate [7] = variants of: B1; test: self-cleavage kobs at 640 uM GlcN6P; higher = faster cleavage; RNA array
Outline: as §1

For G29C G38A, the kcat (glucosamine-6-phosphate [1]) was less than 1e-05 s⁻¹, the “self-cleavage kobs at 40 uM GlcN6P” value (glucosamine-6-phosphate [2]) was less than 1e-05 s⁻¹ and the “self-cleavage kobs at 10000 uM GlcN6P” value (glucosamine-6-phosphate [3]) was less than 1e-05 s⁻¹.

G29A G37U showed a kcat (glucosamine-6-phosphate [1]) of less than 1e-05 s⁻¹.

G29A G32C was tested, and the kcat (glucosamine-6-phosphate [1]) was 0.000144 ± 1.8e-05 s⁻¹, the KM (glucosamine-6-phosphate [4]) was 5140 ± 1500 µM and the “self-cleavage kobs at 2500 uM GlcN6P” value (glucosamine-6-phosphate [5]) was 5.01e-05 ± 9.3e-06 s⁻¹. For the same variant, the “self-cleavage kobs at 10000 uM GlcN6P” value (glucosamine-6-phosphate [3]) was 9.45e-05 ± 9.1e-06 s⁻¹.

In the case of G29A G32A, the kcat (glucosamine-6-phosphate [1]) is reported as 0.00111 ± 7.1e-05 s⁻¹, the KM (glucosamine-6-phosphate [4]) is reported as 2000 ± 220 µM and the “self-cleavage kobs at 40 uM GlcN6P” value (glucosamine-6-phosphate [2]) is reported as 2.33e-05 ± 8.5e-06 s⁻¹. For the same variant, the “self-cleavage kobs at 160 uM GlcN6P” value (glucosamine-6-phosphate [6]) was 8.75e-05 ± 1.7e-05 s⁻¹, the “self-cleavage kobs at 640 uM GlcN6P” value (glucosamine-6-phosphate [7]) was 0.000239 ± 6.2e-05 s⁻¹ and the “self-cleavage kobs at 2500 uM GlcN6P” value (glucosamine-6-phosphate [5]) was 0.000588 ± 0.00013 s⁻¹. For the same variant, the “self-cleavage kobs at 10000 uM GlcN6P” value (glucosamine-6-phosphate [3]) was 0.000945 ± 0.00013 s⁻¹.

G29C U45C was tested, and the kcat (glucosamine-6-phosphate [1]) was 0.000137 ± 2.1e-05 s⁻¹, the KM (glucosamine-6-phosphate [4]) was 2120 ± 930 µM and the “self-cleavage kobs at 2500 uM GlcN6P” value (glucosamine-6-phosphate [5]) was 9.03e-05 ± 2e-05 s⁻¹. The “self-cleavage kobs at 10000 uM GlcN6P” value (glucosamine-6-phosphate [3]) was 0.000108 ± 1.8e-05 s⁻¹.

G29C U45G was tested, and the kcat (glucosamine-6-phosphate [1]) was 0.000453 ± 2e-05 s⁻¹, the KM (glucosamine-6-phosphate [4]) was 4250 ± 400 µM and the “self-cleavage kobs at 640 uM GlcN6P” value (glucosamine-6-phosphate [7]) was 6.1e-05 ± 1.6e-05 s⁻¹. The “self-cleavage kobs at 2500 uM GlcN6P” value (glucosamine-6-phosphate [5]) was 0.000159 ± 3.6e-05 s⁻¹ and the “self-cleavage kobs at 10000 uM GlcN6P” value (glucosamine-6-phosphate [3]) was 0.000319 ± 3.3e-05 s⁻¹.

C16U G40C was tested, and the kcat (glucosamine-6-phosphate [1]) was 0.00242 ± 0.00035 s⁻¹, the KM (glucosamine-6-phosphate [4]) was 1020 ± 220 µM and the “self-cleavage kobs at 40 uM GlcN6P” value (glucosamine-6-phosphate [2]) was 0.00011 ± 1.1e-05 s⁻¹. For the same variant, the “self-cleavage kobs at 160 uM GlcN6P” value (glucosamine-6-phosphate [6]) was 0.000291 ± 3.7e-05 s⁻¹, the “self-cleavage kobs at 640 uM GlcN6P” value (glucosamine-6-phosphate [7]) was 0.000837 ± 8.6e-05 s⁻¹ and the “self-cleavage kobs at 2500 uM GlcN6P” value (glucosamine-6-phosphate [5]) was 0.00184 ± 0.00021 s⁻¹. For the same variant, the “self-cleavage kobs at 10000 uM GlcN6P” value (glucosamine-6-phosphate [3]) was 0.00227 ± 0.00027 s⁻¹.

C16U U46A was tested, and the kcat (glucosamine-6-phosphate [1]) was 0.00336 ± 0.00057 s⁻¹, the KM (glucosamine-6-phosphate [4]) was 2760 ± 760 µM and the “self-cleavage kobs at 40 uM GlcN6P” value (glucosamine-6-phosphate [2]) was 5.67e-05 ± 1.4e-05 s⁻¹. For the same variant, the “self-cleavage kobs at 160 uM GlcN6P” value (glucosamine-6-phosphate [6]) was 0.00012 ± 5.1e-05 s⁻¹, the “self-cleavage kobs at 640 uM GlcN6P” value (glucosamine-6-phosphate [7]) was 0.000641 ± 0.00012 s⁻¹ and the “self-cleavage kobs at 2500 uM GlcN6P” value (glucosamine-6-phosphate [5]) was 0.00176 ± 0.00024 s⁻¹. The “self-cleavage kobs at 10000 uM GlcN6P” value (glucosamine-6-phosphate [3]) was 0.00249 ± 0.00038 s⁻¹.

For G29A C68A, the kcat (glucosamine-6-phosphate [1]) was 1.61e-05 ± 4.9e-06 s⁻¹ and the “self-cleavage kobs at 40 uM GlcN6P” value (glucosamine-6-phosphate [2]) was less than 1e-05 s⁻¹.

In the case of C16U A42U, the kcat (glucosamine-6-phosphate [1]) is reported as 0.000129 ± 1e-05 s⁻¹, the KM (glucosamine-6-phosphate [4]) is reported as 903 ± 300 µM and the “self-cleavage kobs at 640 uM GlcN6P” value (glucosamine-6-phosphate [7]) is reported as 4.79e-05 ± 1.9e-05 s⁻¹. For the same variant, the “self-cleavage kobs at 2500 uM GlcN6P” value (glucosamine-6-phosphate [5]) was 0.000107 ± 2.2e-05 s⁻¹ and the “self-cleavage kobs at 10000 uM GlcN6P” value (glucosamine-6-phosphate [3]) was 0.000115 ± 1.7e-05 s⁻¹.

C16U C61G C67A gave a kcat (glucosamine-6-phosphate [1]) of 2.72e-05 ± 6.4e-06 s⁻¹.

In the case of U30A C58A, the kcat (glucosamine-6-phosphate [1]) is reported as 0.000164 ± 5e-05 s⁻¹, the “self-cleavage kobs at 2500 uM GlcN6P” value (glucosamine-6-phosphate [5]) is reported as 9.07e-05 ± 2.9e-05 s⁻¹ and the “self-cleavage kobs at 10000 uM GlcN6P” value (glucosamine-6-phosphate [3]) is reported as 0.000114 ± 2.4e-05 s⁻¹.

With C16U G66C C67U the kcat (glucosamine-6-phosphate [1]) was 3.45e-05 ± 4.4e-06 s⁻¹.

In the case of C16U A39U, the kcat (glucosamine-6-phosphate [1]) is reported as 0.0586 ± 0.022 s⁻¹, the KM (glucosamine-6-phosphate [4]) is reported as 9390 ± 4200 µM and the “self-cleavage kobs at 160 uM GlcN6P” value (glucosamine-6-phosphate [6]) is reported as 0.00114 ± 0.00038 s⁻¹. For the same variant, the “self-cleavage kobs at 640 uM GlcN6P” value (glucosamine-6-phosphate [7]) was 0.00392 ± 0.00055 s⁻¹, the “self-cleavage kobs at 2500 uM GlcN6P” value (glucosamine-6-phosphate [5]) was 0.0111 ± 0.0017 s⁻¹ and the “self-cleavage kobs at 10000 uM GlcN6P” value (glucosamine-6-phosphate [3]) was 0.034 ± 0.0081 s⁻¹.

G29U U65C was tested, and the kcat (glucosamine-6-phosphate [1]) was 6.8e-05 ± 1.9e-05 s⁻¹, the “self-cleavage kobs at 2500 uM GlcN6P” value (glucosamine-6-phosphate [5]) was 6.54e-05 ± 1.3e-05 s⁻¹ and the “self-cleavage kobs at 10000 uM GlcN6P” value (glucosamine-6-phosphate [3]) was 5.46e-05 ± 1.2e-05 s⁻¹.

In the case of C16U G37U, the kcat (glucosamine-6-phosphate [1]) is reported as less than 1e-05 s⁻¹ and the “self-cleavage kobs at 40 uM GlcN6P” value (glucosamine-6-phosphate [2]) is reported as less than 1e-05 s⁻¹.

For C16U U47A, the kcat (glucosamine-6-phosphate [1]) was 0.0299 ± 0.0051 s⁻¹, the KM (glucosamine-6-phosphate [4]) was 3060 ± 660 µM and the “self-cleavage kobs at 40 uM GlcN6P” value (glucosamine-6-phosphate [2]) was 0.0004 ± 7.1e-05 s⁻¹. The “self-cleavage kobs at 640 uM GlcN6P” value (glucosamine-6-phosphate [7]) was 0.00515 ± 0.00087 s⁻¹, the “self-cleavage kobs at 2500 uM GlcN6P” value (glucosamine-6-phosphate [5]) was 0.0118 ± 0.003 s⁻¹ and the “self-cleavage kobs at 10000 uM GlcN6P” value (glucosamine-6-phosphate [3]) was 0.0259 ± 0.0068 s⁻¹.

In the case of G29A C67G, the kcat (glucosamine-6-phosphate [1]) is reported as 0.00016 ± 1.6e-05 s⁻¹, the KM (glucosamine-6-phosphate [4]) is reported as 1710 ± 390 µM and the “self-cleavage kobs at 640 uM GlcN6P” value (glucosamine-6-phosphate [7]) is reported as 4.67e-05 ± 1e-05 s⁻¹. For the same variant, the “self-cleavage kobs at 2500 uM GlcN6P” value (glucosamine-6-phosphate [5]) was 8.59e-05 ± 1.7e-05 s⁻¹ and the “self-cleavage kobs at 10000 uM GlcN6P” value (glucosamine-6-phosphate [3]) was 0.000145 ± 2.5e-05 s⁻¹.
